From publication PMC5884802 come the findings set out here.

Data set [1] relates to CRP-FAM (α-CRP aptamer) (DNA, aptamer) ACACGATGGGGGGGTATGATTTGATGTGGTTGTTGCATGATCGTGG
Kind of data set: microscale thermophoresis. To be noted: Na+ 50 mM, K+ 5 mM, Mg2+ 5 mM, Ca2+ 2 mM; 20 mM Tris-HCl, 0.1% Tween-20, pH 8.0; up to 100 µM; no plateau, no fit. A general note: In MST a laser heats a spot of the sample, and binding alters the fluorescence response.

The subject of data set [2] is Amp(short)-FAM (α-Amp(short) aptamer) (DNA, aptamer) CACGGCATGGTGGGCGTCGTG
Kind of data set: microscale thermophoresis. To be noted: Na+ 50 mM, K+ 5 mM, Mg2+ 5 mM, Ca2+ 2 mM; 20 mM Tris-HCl, 0.1% Tween-20, pH 8.0; second printed KD 600 nM, unexplained.

Data set [3] has as its system α-Amp-short (α-Amp-short-AuNP) (DNA, aptamer) CACGGCATGGTGGGCGTCGTG
Kind of data set: competitive lateral flow assay. The note with it: Na+ 50 mM, K+ 5 mM, Mg2+ 5 mM, Ca2+ 2 mM; 20 mM Tris, 0.1 mM BSA, 1.7% Triton-X-100, pH 8; biotinylated CRP displaced; signal decrease at 185 µg ampicillin.

For data set [4], the system named is α-CRP (α-CRP-AuNP) (DNA, aptamer) ACACGATGGGGGGGTATGATTTGATGTGGTTGTTGCATGATCGTGG
Kind of data set: competitive lateral flow assay. The note with it: Na+ 50 mM, K+ 5 mM, Mg2+ 5 mM, Ca2+ 2 mM; 20 mM Tris, 0.1 mM BSA, 1.7% Triton-X-100, pH 8; biotinylated CRP displaced; signal decrease at 18.5 µg ampicillin.

The target of data set [5] is T1, C-reactive protein (CRP), biotinylated (UniProt P02741 19-224).
T1 sequence: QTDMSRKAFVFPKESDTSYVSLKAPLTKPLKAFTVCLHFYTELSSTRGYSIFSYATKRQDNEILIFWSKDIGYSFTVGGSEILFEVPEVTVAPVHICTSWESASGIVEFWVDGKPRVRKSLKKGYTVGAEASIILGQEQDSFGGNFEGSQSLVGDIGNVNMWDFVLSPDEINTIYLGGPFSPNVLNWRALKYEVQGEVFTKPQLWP
Kind of data set: MST; binding indicated, no plateau, no Kd fit; CRP-biotin 610 pM-20 µM; LFA: 20 mM Tris, 50 mM NaCl, 5 mM KCl, 5 mM MgCl2, 2 mM CaCl2, 0.1 mM BSA, 1.7% Triton X-100, pH 8, temperature not stated; MST with CRP-biotin: 32.8 mM Tris-HCl, 70.5 mM NaCl, 2.5 mM KCl, 2.5 mM MgCl2, 1.4 mM CaCl2, 0.1% Tween-20, 5 nM FAM-oligo. The note with it: protein: commercial; tags: biotin (NHS-PEG4-Biotin); chain copies: 5; label: 5' FAM; stem-loop (Mfold).

For data set [6], the target named is T1, C-reactive protein (CRP), biotinylated. Put plainly: lateral flow assay (AuNP); 40.5 µg CRP-biotin; LFA: 20 mM Tris, 50 mM NaCl, 5 mM KCl, 5 mM MgCl2, 2 mM CaCl2, 0.1 mM BSA, 1.7% Triton X-100, pH 8, temperature not stated; MST with CRP-biotin: 32.8 mM Tris-HCl, 70.5 mM NaCl, 2.5 mM KCl, 2.5 mM MgCl2, 1.4 mM CaCl2, 0.1% Tween-20, 5 nM FAM-oligo. To be noted: protein: commercial; tags: biotin (NHS-PEG4-Biotin); chain copies: 5; label: 10 nm gold nanoparticle via 5' thiol; stem-loop (Mfold).

For data set [7] the target is unchanged. Kind of data set: lateral flow assay (AuNP); 40.5 µg CRP-biotin; test line stronger than α-CRP; LFA: 20 mM Tris, 50 mM NaCl, 5 mM KCl, 5 mM MgCl2, 2 mM CaCl2, 0.1 mM BSA, 1.7% Triton X-100, pH 8, temperature not stated; MST with CRP-biotin: 32.8 mM Tris-HCl, 70.5 mM NaCl, 2.5 mM KCl, 2.5 mM MgCl2, 1.4 mM CaCl2, 0.1% Tween-20, 5 nM FAM-oligo. To be noted: protein: commercial, tags: biotin (NHS-PEG4-Biotin), chain copies: 5, label: 10 nm gold nanoparticle via 5' thiol.

The target is the same in data set [8]. Kind of data set: lateral flow assay (FAM); 4 µg CRP-biotin; LFA: 20 mM Tris, 50 mM NaCl, 5 mM KCl, 5 mM MgCl2, 2 mM CaCl2, 0.1 mM BSA, 1.7% Triton X-100, pH 8, temperature not stated; MST with CRP-biotin: 32.8 mM Tris-HCl, 70.5 mM NaCl, 2.5 mM KCl, 2.5 mM MgCl2, 1.4 mM CaCl2, 0.1% Tween-20, 5 nM FAM-oligo. The note with it: protein: commercial; tags: biotin (NHS-PEG4-Biotin); chain copies: 5; label: 5' FAM.

On to `CC1(C)S[C@@H]2[C@H](NC(=O)[C@H](N)c3ccccc3)C(=O)N2[C@H]1C(=O)O`, for which the binding entry in data set [1], in data set [3] and in data set [4] was “yes” throughout. In addition, the dissociation constant (KD) (in general, a measure of binding affinity in units of concentration) in data set [2] is 0.263 µM.
Regarding ACACGATGGGGGGGTATGATTTGATGTGGTTGTTGCATGATCGTGG (ssDNA) [CRP-FAM], the binding result in data set [5] is listed as “binds”.
With ACACGATGGGGGGGTATGATTTGATGTGGTTGTTGCATGATCGTGG (ssDNA, 5' SH-(C6H12) thiol) [α-CRP (AuNP conjugate)], the binding result in data set [6] is “binds”.
Turning to TTTTTTTTTTTTTTTCACGGCATGGTGGGCGTCGTG (ssDNA, 5' SH-(C6H12) thiol) [α-Amp-poly(T) (AuNP conjugate)], the binding result in data set [7] was “binds”.
For the molecule CACGGCATGGTGGGCGTCGTG (ssDNA) [Amp(short)-FAM], the binding result in data set [5] is “binds”.
As for CACGGCATGGTGGGCGTCGTG (ssDNA, 5' SH-(C6H12) thiol) [α-Amp-short (AuNP conjugate)], the binding result in data set [7] (stem-loop (Mfold)) is listed as “binds”.
For ACACGAACCGGGCCAATGATTTGATGACCTTGTTGCATGATCGTAG (ssDNA) [CRP w/o TGG-FAM], the binding result in data set [8] is “binds”.
Turning to CACGGCATAGACCGCGTCGTG (ssDNA) [Amp(short) w/o TGG-FAM], the binding result in data set [8] is on record as “binds”.
